The numbers were not newly measured in US9180102B2, “Methods for fabricating nano and microparticles for drug delivery” (BOARD OF REGENTS, THE UNIVERSITY OF TEXAS SYSTEM, priority 2005, dated 2015), which cites them from elsewhere.

The series addresses Cathepsin B (Homo sapiens, UniProt P07858). The following applies: degradation of peptide spacer by lysosomal protease.

With “Gly-Phe-Leu-Gly (GFLG; printed: Gly-Phe-Leu-Gly)”, the “sensitivity of peptide spacer sequence to Cathepsin B” value is recorded as “especially sensitive”.
